Source: article PMC6028451
Values belong to the substance of their own block, whether it stands above or below them.

How the values were obtained:
SRP (Escherichia coli) = SRP (Escherichia coli) (UniProt P0AGD7); conditions: cited from earlier work
[1] = target: SRP(MDCC): signal recognition particle with MDCC at position 235 in the G domain of Ffh (Escherichia coli) (UniProt P0AGD7); assay: stopped-flow FRET kinetics; Lep50-RNC (30 nM) in complex with SRP(MDCC) (500 nM) rapidly mixed with FtsY(Bpy) (1 µM); no SecYEG
[2] = target: SRP(MDCC): signal recognition particle with MDCC at position 235 in the G domain of Ffh (Escherichia coli) (UniProt P0AGD7); assay: other fluorescence titration; as a22 (Lep75-RNC), with SecYEG in nanodiscs (300 nM); apparent
[3] = target: SRP(MDCC): signal recognition particle with MDCC at position 235 in the G domain of Ffh (Escherichia coli) (UniProt P0AGD7); assay: other fluorescence titration; SRP(MDCC) 25 nM titrated with FtsY(Bpy); SRP bound to Lep50-RNC (10 nM); buffer A, 25 °C; apparent
[4] = target: SRP(MDCC): signal recognition particle with MDCC at position 235 in the G domain of Ffh (Escherichia coli) (UniProt P0AGD7); assay: other fluorescence titration; equilibrium titration monitored by FRET; SRP(MDCC) 25 nM titrated with FtsY(Bpy); SRP bound to 70S ribosomes (500 nM); buffer A, 25 °C; apparent
[5] = target: SRP(MDCC): signal recognition particle with MDCC at position 235 in the G domain of Ffh (Escherichia coli) (UniProt P0AGD7); assay: stopped-flow FRET kinetics; 70S ribosomes (50 nM) in complex with SRP(MDCC) (500 nM) rapidly mixed with FtsY(Bpy) (1 µM); acceptor (Bpy) fluorescence; no SecYEG
Lep50- or Lep75-RNC [6] = assay: other fluorescence titration; equilibrium titration monitored by FRET; (Bpy)Lep-RNC 4 nM titrated with SRP(Alx), GDPNP 500 µM, buffer A, 25 °C; apparent; without SecYEG
[7] = target: (Bpy)Lep50-RNC: stalled ribosome-nascent-chain complex with a nascent chain of leader peptidase (Lep) of 50 amino acids, Bodipy FL at the N-terminal methionine (Escherichia coli) (UniProt P00803); assay: other fluorescence titration; as a5, RNC in complex with FtsY (1 µM) and SecYEG in nanodiscs (increasing to saturating); apparent
[8] = target: (Bpy)Lep75-RNC: stalled ribosome-nascent-chain complex with a nascent chain of leader peptidase (Lep) of 75 amino acids, Bodipy FL at the N-terminal methionine (Escherichia coli) (UniProt P00803); assay: as above
Lep50- or Lep75-RNC [9] = assay: other fluorescence titration; as a5, in the presence of saturating amounts of SecYEG in nanodiscs; apparent
[10] = target: (Bpy)Lep50-RNC: stalled ribosome-nascent-chain complex with a nascent chain of leader peptidase (Lep) of 50 amino acids, Bodipy FL at the N-terminal methionine (Escherichia coli) (UniProt P00803); assay: other fluorescence titration; as a5, in the presence of FtsY (1 µM) and SecY39EG in nanodiscs; apparent
[11] = target: (Bpy)Lep75-RNC: stalled ribosome-nascent-chain complex with a nascent chain of leader peptidase (Lep) of 75 amino acids, Bodipy FL at the N-terminal methionine (Escherichia coli) (UniProt P00803); assay: as above
FtsY (Escherichia coli) = FtsY (Escherichia coli) (UniProt P10121); conditions: cited from earlier work

Chain of FtsY (P10121 2-497): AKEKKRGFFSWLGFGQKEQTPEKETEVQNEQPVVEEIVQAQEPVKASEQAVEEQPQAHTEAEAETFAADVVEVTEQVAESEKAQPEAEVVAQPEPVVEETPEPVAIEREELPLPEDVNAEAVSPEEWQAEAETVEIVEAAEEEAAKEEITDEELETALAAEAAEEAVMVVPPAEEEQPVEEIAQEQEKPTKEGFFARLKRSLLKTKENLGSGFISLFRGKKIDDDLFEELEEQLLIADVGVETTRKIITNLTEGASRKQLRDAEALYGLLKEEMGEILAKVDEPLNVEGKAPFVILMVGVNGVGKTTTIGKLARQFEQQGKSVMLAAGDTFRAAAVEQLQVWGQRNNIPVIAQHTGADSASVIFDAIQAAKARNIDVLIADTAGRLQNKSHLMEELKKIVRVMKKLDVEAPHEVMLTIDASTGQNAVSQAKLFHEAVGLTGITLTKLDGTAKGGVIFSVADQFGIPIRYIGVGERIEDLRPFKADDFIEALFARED
Chain of SecYEG (P0AGA2 whole entry): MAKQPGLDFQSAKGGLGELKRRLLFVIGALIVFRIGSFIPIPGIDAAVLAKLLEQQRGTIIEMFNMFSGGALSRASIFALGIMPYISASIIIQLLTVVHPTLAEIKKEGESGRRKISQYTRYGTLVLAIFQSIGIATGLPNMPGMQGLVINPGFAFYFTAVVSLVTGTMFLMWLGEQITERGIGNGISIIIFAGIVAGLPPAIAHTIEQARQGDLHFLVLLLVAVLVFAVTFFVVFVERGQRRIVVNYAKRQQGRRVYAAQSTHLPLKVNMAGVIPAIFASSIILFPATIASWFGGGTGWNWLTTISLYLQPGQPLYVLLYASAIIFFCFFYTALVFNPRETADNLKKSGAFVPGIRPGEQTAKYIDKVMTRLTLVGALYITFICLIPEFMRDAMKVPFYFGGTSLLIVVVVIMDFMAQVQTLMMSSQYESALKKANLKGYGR
Chain of SecYEG (P0AG96 whole entry, further chain): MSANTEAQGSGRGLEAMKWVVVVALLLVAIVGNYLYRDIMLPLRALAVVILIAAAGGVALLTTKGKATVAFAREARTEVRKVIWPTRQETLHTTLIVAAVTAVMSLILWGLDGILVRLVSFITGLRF
Chain of SecYEG (P0AG99 whole entry, further chain): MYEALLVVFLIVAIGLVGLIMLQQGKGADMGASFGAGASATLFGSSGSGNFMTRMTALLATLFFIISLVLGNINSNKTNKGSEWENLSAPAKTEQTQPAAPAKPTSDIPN

Substance: FtsY (from UniProt P10121)
Kd (SRP (Escherichia coli)): 500 nM

average half-life time of association [1]: 1 s
Kd [2]: 40 nM
fold increase of the appKd with SecYEG against without SecYEG [2]: 10 fold
Kd [3]: 5 to 10 nM
Kd [4]: 50 nM
half-life time of association [5]: 15 s
Substance: FtsY(Bpy): SRP receptor FtsY with Bodipy FL at position 487 in the N domain (from UniProt P10121 1-497)

Kd (Lep50- or Lep75-RNC [6]): 3 to 4 nM
Kd [7]: 50 nM
α (factor by which the appKd of SRP binding is increased by SecYEG–FtsY) [8]: 4
Kd (Lep50- or Lep75-RNC [9]): 15 to 20 nM
fold change of the apparent affinity with SecY39EG–FtsY [10]: < 5 fold
fold change of the apparent affinity with SecY39EG–FtsY [11]: < 5 fold
Substance: SRP(Alx): signal recognition particle with Alexa555 at position 430 in the M domain of SRP protein Ffh (from UniProt P0AGD7 1-453) (complex)

Substance: SecYEG (from UniProt P0AGA2)
Kd (FtsY (Escherichia coli)): 200 nM
